Measurements reported in the supplement of paper PMC9732359.
± gives the uncertainty stated by the source.

Assay: protein stability index of a GFP-peptide fusion (yeast GPS) (PSI 1-4); higher = more stable; sorted into four equal gates, so the index is relative within each strain
Procedure, shortened: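 Mid-log yeast cultures in leucine-free medium, carrying a pooled plasmid library, were sorted into four equal gates by their GFP/Cherry fluorescence ratio. Each plasmid expressed Cherry along with GFP fused upstream of a tiled 17-residue yeast protein peptide. Plasmids recovered from each gate were PCR-amplified and Illumina-sequenced, with reads assigned to strains by barcodes. The protein stability index was obtained by summing each gate's read frequency weighted by its gate number.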

| Sequence | protein stability index (doa10∆) | protein stability index (pdr5∆) | protein stability index (san1∆) | protein stability index (ubr1∆) |
| --- | --- | --- | --- | --- |
| EVTDKNYYYLFDKKSFF [PRP8] | 2.92 ± 0.056 | 2.44 ± 0.043 | 2.9 ± 0.041 | 2.84 ± 0.04 |
| GIGALFTQQELQKQMGI [RPC34] | 2.93 ± 0.11 | 3.39 ± 0.095 | 3.29 ± 0.085 | 2.69 ± 0.11 |
| QLKAEEKKILNQFLKIK [SMC1] | 2.8 ± 0.045 | 3.19 ± 0.1 | 2.84 ± 0.09 | 2.99 ± 0.078 |
| YHGLYTNYEMSYWQKSY [LIN1] | 1.75 ± 0.046 | 2.08 ± 0.038 | 2.11 ± 0.055 | 2.17 ± 0.041 |
| KRRVTNLEFNYTKPYPN [SMC2] | 3.12 ± 0.071 | 2.88 ± 0.14 | 2.75 ± 0.16 | 2.81 ± 0.12 |
| MATNKIETLDPALIRPG [RPT2] | 3.23 ± 0.1 | 3.31 ± 0.12 | 2.96 ± 0.081 | 3 ± 0.075 |
| IEDRDFLVRYACEPTAE [SIR3] | 2.28 ± 0.064 | 2.83 ± 0.067 | 2.53 ± 0.074 | 3.08 ± 0.069 |
| VDINRLKKGEVSLGTSI [PRE3] | 2.21 ± 0.098 | 1.55 ± 0.063 | 2.11 ± 0.081 | 1.33 ± 0.06 |
| GGSNYMSNLPFGLGYGD [RPC31] | 2.83 ± 0.28 | 3.15 ± 0.19 |  | 3.16 ± 0.18 |
| LDRISSYTAFSRLTLLL [PRP8] | 1.86 ± 0.047 | 1.59 ± 0.044 | 1.93 ± 0.068 | 1.95 ± 0.035 |
| NNPDMMIQPPQQGQNMS [ROX3] |  | 2.92 ± 0.12 | 3.05 ± 0.12 | 3.14 ± 0.14 |
| IDLCHDFPHLTPKLQTQ [YCS4] | 2.6 ± 0.042 | 2.65 ± 0.038 | 2.63 ± 0.042 | 2.49 ± 0.035 |
| KNGLYQEAFKIYQHLAS [SRP72] | 1.81 ± 0.061 | 2.14 ± 0.11 | 2.33 ± 0.23 | 2.77 ± 0.091 |
| YQSRGIDAMKAVAEAYN [RPN6] | 2.87 ± 0.088 | 3.1 ± 0.083 | 2.81 ± 0.077 | 2.65 ± 0.045 |
| DPASFYLFDEIDAALDK [SMC3] | 2.89 ± 0.075 | 3.02 ± 0.082 | 2.61 ± 0.083 | 2.72 ± 0.046 |
| DLKRFVDESLLSTLPAG [QCR2] | 3.02 ± 0.067 | 3.23 ± 0.085 | 2.52 ± 0.099 | 3 ± 0.051 |
| PINLKFLQGESPFSITF [YMR129W/POM152] | 2.53 ± 0.079 | 2.1 ± 0.063 | 2.63 ± 0.063 | 2.32 ± 0.071 |
| IETVDDKLKDIVGQTSR [ITC1] | 3.25 ± 0.07 | 3.01 ± 0.075 | 3.17 ± 0.086 | 3.03 ± 0.14 |
| LLRYGGAFTIALAYAGT [RPN2] | 2.02 ± 0.084 | 2.27 ± 0.11 | 1.91 ± 0.12 | 2.24 ± 0.051 |
| RTLEAITATLVGTVRCE [CSL4] | 1.73 ± 0.12 | 1.91 ± 0.12 | 1.5 ± 0.14 | 2.47 ± 0.16 |
| YNMYDAYGNWFNGLKPL [PRP8] | 2.93 ± 0.06 | 3.36 ± 0.093 | 2.9 ± 0.11 | 3.13 ± 0.048 |
| KLLFQELLSMNIAPRLR [RET1] | 1.35 ± 0.052 | 1.31 ± 0.049 | 1.35 ± 0.089 | 1.24 ± 0.042 |
| TYLTQEILILINDPTNK [SIN4] | 1.31 ± 0.06 | 1.55 ± 0.051 | 1.36 ± 0.091 | 1.26 ± 0.05 |
| LINDSYINDVHLLYPPH [SSN8] | 3.29 ± 0.058 | 3.14 ± 0.057 | 2.96 ± 0.045 | 3.25 ± 0.053 |
| KNWQNVGSLVVKSSMGP [RPL1A] | 2.1 ± 0.046 | 2.39 ± 0.051 | 2.7 ± 0.064 | 2.29 ± 0.045 |
| DEAKEKQLVEKAELRLA [ECM29] |  | 3.26 ± 0.24 |  | 3.27 ± 0.16 |
| VIELPLKNPEIFQRVGI [RPT4] | 2.17 ± 0.11 | 2.16 ± 0.21 | 2.46 ± 0.12 | 2.29 ± 0.17 |

| Sequence | protein stability index (doa10∆) | protein stability index (pdr5∆) | protein stability index (san1∆) | protein stability index (ubr1∆) |
| --- | --- | --- | --- | --- |
| NVYVGMTDMQIQWYKSL [ISW2] | 1.96 ± 0.057 | 2.41 ± 0.059 | 1.99 ± 0.072 | 3.14 ± 0.069 |
| MSTKAQNPMRDLKIEKL [RPL11B] | 3.36 ± 0.16 | 3.25 ± 0.11 | 3.46 ± 0.11 | 3.6 ± 0.23 |
| RRRAFKRSQKKHKKKHL [RPB4] | 3.16 ± 0.091 | 3.1 ± 0.078 | 3.13 ± 0.057 | 3.46 ± 0.077 |
| NFKGLAKEKERMLEEAI [YIL149C/MLP2] | 3.4 ± 0.095 | 3.56 ± 0.09 | 3.48 ± 0.071 | 3.38 ± 0.083 |
| NYFVDTDLKKIIKANQL [RET1] | 2.88 ± 0.058 | 2.85 ± 0.066 | 3.01 ± 0.044 | 2.53 ± 0.036 |
| NSIYCPTQTVAELDLMS [RPN6] | 2.55 ± 0.071 | 1.72 ± 0.071 | 1.39 ± 0.11 | 1.53 ± 0.074 |
| MEWPKDMLKYKEDEPVV [ITC1] | 2.75 ± 0.27 | 3.12 ± 0.14 | 3.36 ± 0.09 | 3.67 ± 0.17 |
| AGFTHKLSNWLFGWNDL [YDL088C/ASM4] | 2.69 ± 0.065 | 3.06 ± 0.059 | 2.9 ± 0.063 | 2.93 ± 0.037 |
| QRKEIKDRISSCSSKEK [SMC4] | 2.28 ± 0.1 | 2.7 ± 0.063 | 2.49 ± 0.12 | 2.89 ± 0.09 |
| DITDGKDYHTLANNVES [RPS18A] | 3.21 ± 0.052 | 3.31 ± 0.048 | 3.22 ± 0.042 | 3.22 ± 0.04 |
| AGVNNDNTKESKDVKMN [RTT102] | 3.1 ± 0.25 |  |  | 2.35 ± 0.24 |
| NSASSAPTPAAPGASVP [SWI1] | 3.04 ± 0.063 | 3.16 ± 0.056 | 3.21 ± 0.057 | 3.03 ± 0.055 |
| ITLLPSSLKESSPDTMK [SNF12] | 2.96 ± 0.19 |  |  | 2.27 ± 0.25 |
| MRRFILGTTEGDIKVLD [RPN14] |  |  |  | 1.25 ± 0.18 |
| GSGSRLNRLPAASLGDM [RPL23A] | 2.28 ± 0.17 | 2.6 ± 0.18 | 2.66 ± 0.24 | 3.12 ± 0.22 |
| SDPQMKVFDTLTRFSHD [RPN1] |  | 2.84 ± 0.15 | 2.78 ± 0.18 | 2.94 ± 0.21 |
| SHTGLVRKYDLNICRQC [RPS29B] | 2.18 ± 0.052 | 2.51 ± 0.068 | 1.94 ± 0.092 | 2.09 ± 0.088 |
| SNTTTHVPEKKSTDLTP [MTR3] |  |  | 2.15 ± 0.18 | 1.31 ± 0.29 |
| IDESLFNLLILSLNKRI [YCG1] | 2.75 ± 0.072 | 2.25 ± 0.062 | 2.03 ± 0.077 | 2.15 ± 0.033 |
| DKDVKAKYETSILEHSG [FAS2] | 3.36 ± 0.058 | 3.33 ± 0.065 | 3.23 ± 0.052 | 3.37 ± 0.064 |
| AGKWSSKYLIKQIDIPN [ECM29] | 1.55 ± 0.068 | 1.86 ± 0.088 | 2.15 ± 0.087 | 2.05 ± 0.049 |
| GVTSLGIKATNGVVIAT [PRE8] | 2.82 ± 0.14 | 2.62 ± 0.16 | 3.05 ± 0.1 | 3.28 ± 0.29 |
| LQNNSDSESDSDSETNH [SKP1] | 2.76 ± 0.065 | 3.19 ± 0.074 | 2.84 ± 0.055 | 2.82 ± 0.082 |
| LSFINPKTGKVERSEAI [SEC65] | 3.6 ± 0.17 | 3.47 ± 0.081 | 3.33 ± 0.14 | 3.22 ± 0.073 |
| RKPILLPDPKPLPLDLN [ITC1] | 2.34 ± 0.044 | 2.55 ± 0.045 | 2.52 ± 0.065 | 2.14 ± 0.04 |
| PYDSNNSNTNLNSLSPQ [SWI1] | 2.96 ± 0.049 | 2.87 ± 0.051 | 2.76 ± 0.054 | 2.79 ± 0.04 |
